The EC50 is the midpoint of the concentration-response curve.

Substitutions are numbered along the chain they refer to.

Sequences and labels used below:
B1: humanized antibody CL6_40m12_DDW (antibody, human IgG1, kappa, V domains shown)
VH: EVQMVESGGGLVQPGGSLRLSCAVSGFSLSSYSVHWVRQAPGKGLEWVAGIWSGGSIHYTPALSSRFTVSRDDSKNTVYLQMNSLRAEDTAVYYCARYDRYETYAMDYWGQGTLVTVSS
VL: DIQLTQSPSSLSASVGDRVTITCKASQSVDYDGDSYMNWYQQKPGKAPKLLIYAASNLESGVPSRFSGSGSGTDFTLTISSLQPEDFATYYCQQSNEDPLTFGQGTKVEIKR
notes: Humanized anti-human Igβ antibody
B2: humanized antibody CL6_40m14_DDW (antibody, human IgG1, kappa, V domains shown)
VH: QVQMQESGPGLVRPSQTLSLTCTVSGFSLSSYSVHWVRQPPGRGLEWIGGIWSGGSIHYTPALSSRVTVLRDTSKNQVSLRLSSVTAADTAVYYCARYDRYETYAMDYWGQGSLVTVSS
VL: B1 VL with L77F, F87I
modifications: pyroglutamylation at the N terminal of the heavy chain in most of the purified antibody (glutamine of amino acid number 1 modified to pyroglutamic acid)
notes: as for B1
B3: humanized antibody CL6_40m16_DDW (antibody, human IgG1, kappa, V domains shown)
VH: B1 VH with M4L, V37F, Q39K, V48L, A49G, F67L, D73I
VL: B1 VL with Q3V
notes: as for B1

The first assay deals with T1, monkey Igβ-Flag protein (monkey).
T1 chain: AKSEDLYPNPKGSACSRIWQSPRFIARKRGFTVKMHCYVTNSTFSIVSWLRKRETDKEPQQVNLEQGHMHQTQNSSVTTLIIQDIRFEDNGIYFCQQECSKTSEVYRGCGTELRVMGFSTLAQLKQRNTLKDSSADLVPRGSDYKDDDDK
Description: antigen ELISA, Igβ-Flag coated on plate, chemiluminescence. As for the experimental part: (§1) In order to measure the antigen binding activity of the humanized antibody, antigen ELISA was used. The human Igβ-Flag protein acquired in Example 1 was prepared with a tris-buffered saline (TBS; Wako Pure Chemical Industries, Ltd.) so as to have a concentration of 5000 ng/mL, added to a NUNC MaxiSorp white 384 plate (Maxisorp 384 plate: Nunc Corporation) by an amount of 15 μL per well, and then solidified at room temperature for 1 hour. The resultant was washed with TBS-T (0.05% Tween-20 containing TBS: Wako Pure Chemical Industries, Ltd.) twice, 120 μL of a blocking agent (Blocking One: Nacalai tesque, Inc.) was added thereto, the resultant was left at room temperature for 1 hour, and the solution was removed. A dilution series (8 steps with a final concentration of 0.46 ng/mL to 1 μg/mL) of respective humanized antibodies obtained in Example 3 was prepared using a dilute solution obtained by adding the same amount of the blocking agent and TBS and then added thereto by an amount of 15 μL. The resultant was left at room temperature for 1 hour, washed with a TBS-T washing liquid three times, and 20 μL of an horseradish peroxidase (HRP)-labeled rabbit anti-human Ig antibody (Dako Ltd.) which had been diluted 3000-fold with a diluted solution was added thereto. Thereafter, the resultant was left at room temperature for 1 hour and then washed with a TBS-T washing liquid three times. Next, 30 μL of BM-Chemiluminescence ELISA Substrate (POD) (Roche Diagnostics Inc.) which is a chemiluminescence detection reagent was added thereto, and the amount of chemiluminescence thereof was measured by an EnVision counter (PerkinElmer, Co., Ltd.). Using the same method, antigen ELISA assay was performed using the monkey Igβ-Flag protein acquired in Example 1. When the binding activities in respective concentrations of the test antibodies were calculated, the measuring amount of a well to which a test antibody was not added was set to 0% and the convergence value of the maximum activity of the test antibody was set to 100%. The calculated binding activities were analyzed and the EC50 values of the test antibodies were calculated by fitting a curve.
(In general: ELISA stands for enzyme-linked immunosorbent assay.)
The molecule B1 gave an EC50 of 0.183 µg/mL.

For B2, the response was half-maximal at 0.106 µg/mL (EC50).

In turn, B3 yielded a 50% effective concentration (EC50) of 0.118 µg/mL.

In the next assay the target is T2, human Igβ-Flag protein (human, UniProt P40259 29-159, limits assumed).
T2 construct: Expressed in FreeStyle 293 cells, purified from culture supernatant with anti-Flag M2 gel; not shown: Flag tag
T2 sequence (looked up): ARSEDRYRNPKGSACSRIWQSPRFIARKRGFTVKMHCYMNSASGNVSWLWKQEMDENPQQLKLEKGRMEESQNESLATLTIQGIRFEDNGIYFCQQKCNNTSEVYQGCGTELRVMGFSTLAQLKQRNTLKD
Described as above. As for the experimental part: as §1
Consider B1, for which the 50% effective concentration (EC50) was found to be 0.128 µg/mL.

Turning to B2, the midpoint of the response, the EC50, lay at 0.1 µg/mL.

As to B3, the response was half-maximal at 0.132 µg/mL (EC50).

A further assay has as its target T3, human Igβ on human B cells (human, UniProt P40259 29-229).
T3 sequence (looked up): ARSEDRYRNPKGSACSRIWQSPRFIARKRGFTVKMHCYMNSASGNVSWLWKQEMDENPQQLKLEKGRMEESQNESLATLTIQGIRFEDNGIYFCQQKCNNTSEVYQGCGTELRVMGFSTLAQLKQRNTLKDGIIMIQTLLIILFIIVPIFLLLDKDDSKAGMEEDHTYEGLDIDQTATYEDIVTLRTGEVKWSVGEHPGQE
Description: cell-based or functional assay.
For B1, the “proliferation rate of human B cells (anti-IgM antibody-induced) at 30 µg/mL antibody” value (“proliferation rate of human B cells” below) worked out at 2.8%.

On to B2, for which the “proliferation rate of human B cells” value amounted to 20.2%.

Regarding B3, the “proliferation rate of human B cells” value worked out at 23.2%.

The values are drawn from patent publication US20170226207A1 (Astellas, published 2017).
